Reference: article PMC8932414, “Latent TGFβ complexes are transglutaminase cross-linked to fibrillin to facilitate TGFβ activation” (Matrix Biology, 2022)

Target: T1, CT1-SLC (LTBP1-CT region disulphide bonded to the TGFβ1 small latent complex) (UniProt Q14766 1347-1721; P01137 30-390, disulphide bonded to the SLC)
T1 construct: TGFβ1 small latent complex (proTGFβ1: prodomain LAP and growth factor); also called LTBP1-SLC; truncated version of the LLC; source: HEK293T, co-expressed from pBUD4.1, purified from serum free media (Anti-Flag M2 resin, SEC); not shown: Twin-Strep (chain inferred)
Experiment: BLI; OctetRED96; biotinylated CT1-SLC on streptavidin biosensors, PF3 100-6.25 nM; 10 mM HEPES, 150 NaCl, pH 7.4, 0.005% Tween-20, 25 °C; 1:1 Langmuir fit
Conditions: both partners purified

T1 sequence (Q14766 1347-1721, chain 1 of 2): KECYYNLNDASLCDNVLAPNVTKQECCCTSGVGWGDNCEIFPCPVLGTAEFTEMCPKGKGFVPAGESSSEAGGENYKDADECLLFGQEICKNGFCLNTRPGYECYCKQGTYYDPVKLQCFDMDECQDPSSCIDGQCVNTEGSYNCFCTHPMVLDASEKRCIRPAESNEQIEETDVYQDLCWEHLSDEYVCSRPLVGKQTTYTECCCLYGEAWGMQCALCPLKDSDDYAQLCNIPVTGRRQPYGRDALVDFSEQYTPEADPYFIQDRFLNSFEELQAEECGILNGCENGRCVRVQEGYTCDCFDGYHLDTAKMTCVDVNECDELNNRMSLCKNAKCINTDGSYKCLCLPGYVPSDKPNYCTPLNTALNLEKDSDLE
T1 sequence (P01137 30-390, chain 2 of 2): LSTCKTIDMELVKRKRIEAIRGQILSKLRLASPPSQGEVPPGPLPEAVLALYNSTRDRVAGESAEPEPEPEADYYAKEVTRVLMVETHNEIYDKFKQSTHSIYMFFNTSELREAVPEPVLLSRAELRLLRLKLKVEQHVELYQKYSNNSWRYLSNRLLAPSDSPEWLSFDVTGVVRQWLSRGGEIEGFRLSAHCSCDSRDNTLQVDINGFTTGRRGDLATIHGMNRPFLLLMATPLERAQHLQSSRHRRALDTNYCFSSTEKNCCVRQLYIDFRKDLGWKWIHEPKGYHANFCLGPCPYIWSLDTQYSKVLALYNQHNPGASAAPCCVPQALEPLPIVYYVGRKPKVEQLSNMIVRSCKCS

Kd: ~6 nM
B1: fibrillin-1 N-terminal region PF3 (domain or fragment)
chain: not shown
notes: fibrillin-1, N-terminal region called PF3; P35555-1 is printed for the AlphaFold input (115-287); PF1 and PF2 are two over-lapping constructs within this region; not verified; also called fibrillin1-PF3; fibrillin PF3 fragment
